Measurements reported in the Human Domainome abundance scans (Beltran et al. 2025).
± gives the uncertainty stated by the source.

Experiment: abundance fitness (aPCA) (normalised: wild type 0, dead -1); higher = more abundant; growth selection in yeast, the domain comes from the species named
Conditions: Homo sapiens
With “DnaJ homolog subfamily B member 1 E47G, P25685” the abundance fitness was -0.054 ± 0.076.
Work on “DnaJ homolog subfamily B member 1 E47H, P25685” yielded an abundance fitness of -0.009 ± 0.11.
“DnaJ homolog subfamily B member 1 E47K, P25685” gave an abundance fitness of -0.43 ± 0.12.
“DnaJ homolog subfamily B member 1 E47M, P25685” showed an abundance fitness of -0.186 ± 0.096.
With “DnaJ homolog subfamily B member 1 E47N, P25685” the abundance fitness was 0.333 ± 0.21.
Work on “DnaJ homolog subfamily B member 1 E47P, P25685” yielded an abundance fitness of -0.212 ± 0.088.
Substance “DnaJ homolog subfamily B member 1 E47Q, P25685” has an abundance fitness of -0.153 ± 0.1.
With “DnaJ homolog subfamily B member 1 E47R, P25685” the abundance fitness was -0.071 ± 0.068.
Work on “DnaJ homolog subfamily B member 1 E47S, P25685” yielded an abundance fitness of -0.099 ± 0.072.
“DnaJ homolog subfamily B member 1 E47T, P25685” showed an abundance fitness of -0.118 ± 0.068.
Work on “DnaJ homolog subfamily B member 1 E47V, P25685” yielded an abundance fitness of -0.295 ± 0.088.
“DnaJ homolog subfamily B member 1 E50A, P25685” showed an abundance fitness of -0.241 ± 0.11.
Work on “DnaJ homolog subfamily B member 1 E50C, P25685” yielded an abundance fitness of -0.311 ± 0.095.
With “DnaJ homolog subfamily B member 1 E50D, P25685” the abundance fitness was -0.074 ± 0.087.
Substance “DnaJ homolog subfamily B member 1 E50F, P25685” has an abundance fitness of -0.612 ± 0.19.
“DnaJ homolog subfamily B member 1 E50G, P25685” gave an abundance fitness of -0.326 ± 0.13.
“DnaJ homolog subfamily B member 1 E50H, P25685” gave an abundance fitness of -0.222 ± 0.17.
Work on “DnaJ homolog subfamily B member 1 E50I, P25685” yielded an abundance fitness of -0.011 ± 0.1.
“DnaJ homolog subfamily B member 1 E50L, P25685” showed an abundance fitness of -0.026 ± 0.052.
With “DnaJ homolog subfamily B member 1 E50M, P25685” the abundance fitness was -0.181 ± 0.12.
For “DnaJ homolog subfamily B member 1 E50N, P25685”, the abundance fitness was -0.328 ± 0.1.
With “DnaJ homolog subfamily B member 1 E50P, P25685” the abundance fitness was -0.885 ± 0.18.
With “DnaJ homolog subfamily B member 1 E50Q, P25685” the abundance fitness was -0.177 ± 0.082.
Work on “DnaJ homolog subfamily B member 1 E50R, P25685” yielded an abundance fitness of -0.036 ± 0.062.
Work on “DnaJ homolog subfamily B member 1 E50S, P25685” yielded an abundance fitness of -0.211 ± 0.066.
Work on “DnaJ homolog subfamily B member 1 E50V, P25685” yielded an abundance fitness of -0.085 ± 0.078.
Substance “DnaJ homolog subfamily B member 1 E50W, P25685” has an abundance fitness of -0.34 ± 0.11.
“DnaJ homolog subfamily B member 1 E50Y, P25685” showed an abundance fitness of -0.096 ± 0.12.
Work on “DnaJ homolog subfamily B member 1 E62C, P25685” yielded an abundance fitness of -0.361 ± 0.14.
Substance “DnaJ homolog subfamily B member 1 E62D, P25685” has an abundance fitness of -0.31 ± 0.13.
“DnaJ homolog subfamily B member 1 E62F, P25685” gave an abundance fitness of -0.519 ± 0.12.
Substance “DnaJ homolog subfamily B member 1 E62G, P25685” has an abundance fitness of -0.272 ± 0.15.
Substance “DnaJ homolog subfamily B member 1 E62H, P25685” has an abundance fitness of -0.351 ± 0.081.
“DnaJ homolog subfamily B member 1 E62I, P25685” showed an abundance fitness of -0.378 ± 0.14.
For “DnaJ homolog subfamily B member 1 E62M, P25685”, the abundance fitness was -0.32 ± 0.11.
Work on “DnaJ homolog subfamily B member 1 E62N, P25685” yielded an abundance fitness of -0.567 ± 0.28.
In the case of “DnaJ homolog subfamily B member 1 E62P, P25685”, the abundance fitness is reported as -0.134 ± 0.079.
Work on “DnaJ homolog subfamily B member 1 E62Q, P25685” yielded an abundance fitness of -0.353 ± 0.12.
“DnaJ homolog subfamily B member 1 E62R, P25685” showed an abundance fitness of -0.344 ± 0.095.
Work on “DnaJ homolog subfamily B member 1 E62S, P25685” yielded an abundance fitness of -0.212 ± 0.077.
In the case of “DnaJ homolog subfamily B member 1 E62V, P25685”, the abundance fitness is reported as -0.218 ± 0.12.
